Laboratory results reported in patent publication US20220273789A1.

Molecular target: human IgG (human)
Experiment: BLI (Octet), gEgI on Ni-NTA sensor, hIgG in solution

Substance | Kd [nM] | Response [nm] | koff [s⁻¹] | kon [M⁻¹ s⁻¹]
HSV2-gE_P317K S338H_gI (from UniProt P89475 21-416; P06764 21-256) (receptor) | 338 | 0.146 | 0.00195 | 5780
HSV2-gE_R314L F322I_gI (from UniProt P89475 21-416; P06764 21-256) (receptor) | 274 | 0.433 | 0.00277 | 10100
HSV2-gE_P318D S338L_gI (from UniProt P89475 21-416; P06764 21-256) (receptor) | 163 | 0.303 | 0.00107 | 6560
HSV2-gE_P317S S338H_gI (from UniProt P89475 21-416; P06764 21-256) (receptor) | 154 | 0.516 | 0.0021 | 13600
HSV2-gE_P317S S338G_gI (from UniProt P89475 21-416; P06764 21-256) (receptor) | 302 | 0.595 | 0.00453 | 15000
HSV2-gE_P317F V340R_gI (from UniProt P89475 21-416; P06764 21-256) (receptor) | 372 | 0.301 | 0.00218 | 5880
HSV2-gE_R314P V340W_gI (from UniProt P89475 21-416; P06764 21-256) (receptor) | 560 | 0.134 | 0.00355 | 6340
HSV2-gE_P317K S338L_gI (from UniProt P89475 21-416; P06764 21-256) (receptor) | 252 | 0.334 | 0.0016 | 6350
HSV2-gE_P317K V340W_gI (from UniProt P89475 21-416; P06764 21-256) (receptor) | 517 | 0.111 | 0.00348 | 6740
HSV2-gE_P318D S338G_gI (from UniProt P89475 21-416; P06764 21-256) (receptor) | 330 | 0.143 | 0.00256 | 7750
HSV2-gE_R314G F322A_gI (from UniProt P89475 21-416; P06764 21-256) (receptor) | 232 | 0.469 | 0.00328 | 14200
HSV2-gE_R314P F322I_gI (from UniProt P89475 21-416; P06764 21-256) (receptor) | 300 | 0.389 | 0.0036 | 12000
HSV2-gE_R314G V340W_gI (from UniProt P89475 21-416; P06764 21-256) (receptor) | 1010 | 0.144 | 0.00543 | 5400
HSV2-gE_P317K V340R_gI (from UniProt P89475 21-416; P06764 21-256) (receptor) | 241 | 0.508 | 0.00163 | 6740
HSV2-gE_P317F V340W_gI (from UniProt P89475 21-416; P06764 21-256) (receptor) | 577 | 0.116 | 0.00414 | 7170
HSV2-gE_R314P V340M_gI (from UniProt P89475 21-416; P06764 21-256) (receptor) | 402 | 0.525 | 0.0046 | 11400
HSV2-gE_R314L V340R_gI (from UniProt P89475 21-416; P06764 21-256) (receptor) | 615 | 0.284 | 0.00307 | 4990
HSV2-gE_R314G F322I_gI (from UniProt P89475 21-416; P06764 21-256) (receptor) | 272 | 0.291 | 0.00262 | 9620
HSV2-gE_R314L F322A_gI (from UniProt P89475 21-416; P06764 21-256) (receptor) | 303 | 0.603 | 0.00385 | 12700
HSV2-gE_P319L V340M_gI (from UniProt P89475 21-416; P06764 21-256) (receptor) | 222 | 0.336 | 0.00216 | 9750
HSV2-gE_P319L V340R_gI (from UniProt P89475 21-416; P06764 21-256) (receptor) | 160 | 0.509 | 0.00141 | 8770
HSV2-gE_P317F S338H_gI (from UniProt P89475 21-416; P06764 21-256) (receptor) | 339 | 0.182 | 0.00167 | 4910
HSV2-gE_R314P F322A_gI (from UniProt P89475 21-416; P06764 21-256) (receptor) | 247 | 0.655 | 0.00423 | 17100
HSV2-gE_P317S V340M_gI (from UniProt P89475 21-416; P06764 21-256) (receptor) | 269 | 0.623 | 0.0039 | 14500

Substance | Kd [nM] | Response [nm] | koff [s⁻¹] | kon [M⁻¹ s⁻¹]
HSV2-gE_R314P P318R_gI (from UniProt P89475 21-416; P06764 21-256) (receptor) | 317 | 0.371 | 0.00199 | 6270
HSV2-gE_P317K S338G_gI (from UniProt P89475 21-416; P06764 21-256) (receptor) | 238 | 0.198 | 0.00167 | 7030
HSV2-gE_R314P V340R_gI (from UniProt P89475 21-416; P06764 21-256) (receptor) | 459 | 0.351 | 0.00241 | 5260
HSV2-gE_P319G V340M_gI (from UniProt P89475 21-416; P06764 21-256) (receptor) | 297 | 0.393 | 0.00393 | 13200
HSV2-gE_P319G V340W_gI (from UniProt P89475 21-416; P06764 21-256) (receptor) | 385 | 0.106 | 0.00249 | 6460
HSV2-gE_P319G V340R_gI (from UniProt P89475 21-416; P06764 21-256) (receptor) | 197 | 0.287 | 0.00137 | 6960
HSV2-gE_R314L F322P_gI (from UniProt P89475 21-416; P06764 21-256) (receptor) | 210 | 0.607 | 0.00255 | 12100
HSV2-gE_R314P P318D_gI (from UniProt P89475 21-416; P06764 21-256) (receptor) | 222 | 0.306 | 0.00145 | 6520
HSV2-gE_P319L V340W_gI (from UniProt P89475 21-416; P06764 21-256) (receptor) | 230 | 0.139 | 0.00217 | 9450
HSV2-gE_R314G P318I_gI (from UniProt P89475 21-416; P06764 21-256) (receptor) | 449 | 0.153 | 0.00278 | 6200
HSV2-gE_P317S V340R_gI (from UniProt P89475 21-416; P06764 21-256) (receptor) | 277 | 0.403 | 0.00191 | 6890
HSV2-gE_P317F S338G_gI (from UniProt P89475 21-416; P06764 21-256) (receptor) | 399 | 0.153 | 0.00248 | 6220
HSV2-gE_R314G P318R_gI (from UniProt P89475 21-416; P06764 21-256) (receptor) | 148 | 0.22 | 0.000833 | 5640
HSV2-gE_R314P P318I_gI (from UniProt P89475 21-416; P06764 21-256) (receptor) | 277 | 0.248 | 0.00223 | 8040
HSV2-gE_R314L P318D_gI (from UniProt P89475 21-416; P06764 21-256) (receptor) | < 0.001 | 0.134 | < 1e-07 | 7900
HSV2-gE_P317F S338L_gI (from UniProt P89475 21-416; P06764 21-256) (receptor) | 225 | 0.442 | 0.00165 | 7370
HSV2-gE_R314G V340M_gI (from UniProt P89475 21-416; P06764 21-256) (receptor) | 390 | 0.466 | 0.00401 | 10300
HSV2-gE_R314L V340W_gI (from UniProt P89475 21-416; P06764 21-256) (receptor) | 914 | 0.148 | 0.00524 | 5740
HSV2-gE_P318I S338L_gI (from UniProt P89475 21-416; P06764 21-256) (receptor) | 152 | 0.411 | 0.00124 | 8130
HSV2-gE_P318I S338H_gI (from UniProt P89475 21-416; P06764 21-256) (receptor) | 286 | 0.252 | 0.0025 | 8740
HSV2-gE_R314G V340R_gI (from UniProt P89475 21-416; P06764 21-256) (receptor) | 394 | 0.439 | 0.00245 | 6230
HSV2-gE_R314P F322P_gI (from UniProt P89475 21-416; P06764 21-256) (receptor) | 283 | 0.561 | 0.00356 | 12600
HSV2-gE_P317F V340M_gI (from UniProt P89475 21-416; P06764 21-256) (receptor) | 291 | 0.259 | 0.00189 | 6510
